Measured values from patent US20140370035A1 (BIOVERATIV THERAPEUTICS, published 2014).
One block for each molecule: values may come before it.

How the values were obtained:
[1] = target: single-chain canine FcRn (canine); experiment: SPR (Biacore T100), steady state, pH 6.0; single-chain FcRn amine-coupled to CM5 chip, analyte at 0.0625-2000 nM
[2] = target: single-chain human FcRn (human) (UniProt P55899); experiment: as above
[3] = target: single-chain murine FcRn (mouse) (UniProt Q61559); experiment: as above
[4] = tested on: T1, rBDD FVIII (recombinant B-domain deleted FVIII)
T1 sequence: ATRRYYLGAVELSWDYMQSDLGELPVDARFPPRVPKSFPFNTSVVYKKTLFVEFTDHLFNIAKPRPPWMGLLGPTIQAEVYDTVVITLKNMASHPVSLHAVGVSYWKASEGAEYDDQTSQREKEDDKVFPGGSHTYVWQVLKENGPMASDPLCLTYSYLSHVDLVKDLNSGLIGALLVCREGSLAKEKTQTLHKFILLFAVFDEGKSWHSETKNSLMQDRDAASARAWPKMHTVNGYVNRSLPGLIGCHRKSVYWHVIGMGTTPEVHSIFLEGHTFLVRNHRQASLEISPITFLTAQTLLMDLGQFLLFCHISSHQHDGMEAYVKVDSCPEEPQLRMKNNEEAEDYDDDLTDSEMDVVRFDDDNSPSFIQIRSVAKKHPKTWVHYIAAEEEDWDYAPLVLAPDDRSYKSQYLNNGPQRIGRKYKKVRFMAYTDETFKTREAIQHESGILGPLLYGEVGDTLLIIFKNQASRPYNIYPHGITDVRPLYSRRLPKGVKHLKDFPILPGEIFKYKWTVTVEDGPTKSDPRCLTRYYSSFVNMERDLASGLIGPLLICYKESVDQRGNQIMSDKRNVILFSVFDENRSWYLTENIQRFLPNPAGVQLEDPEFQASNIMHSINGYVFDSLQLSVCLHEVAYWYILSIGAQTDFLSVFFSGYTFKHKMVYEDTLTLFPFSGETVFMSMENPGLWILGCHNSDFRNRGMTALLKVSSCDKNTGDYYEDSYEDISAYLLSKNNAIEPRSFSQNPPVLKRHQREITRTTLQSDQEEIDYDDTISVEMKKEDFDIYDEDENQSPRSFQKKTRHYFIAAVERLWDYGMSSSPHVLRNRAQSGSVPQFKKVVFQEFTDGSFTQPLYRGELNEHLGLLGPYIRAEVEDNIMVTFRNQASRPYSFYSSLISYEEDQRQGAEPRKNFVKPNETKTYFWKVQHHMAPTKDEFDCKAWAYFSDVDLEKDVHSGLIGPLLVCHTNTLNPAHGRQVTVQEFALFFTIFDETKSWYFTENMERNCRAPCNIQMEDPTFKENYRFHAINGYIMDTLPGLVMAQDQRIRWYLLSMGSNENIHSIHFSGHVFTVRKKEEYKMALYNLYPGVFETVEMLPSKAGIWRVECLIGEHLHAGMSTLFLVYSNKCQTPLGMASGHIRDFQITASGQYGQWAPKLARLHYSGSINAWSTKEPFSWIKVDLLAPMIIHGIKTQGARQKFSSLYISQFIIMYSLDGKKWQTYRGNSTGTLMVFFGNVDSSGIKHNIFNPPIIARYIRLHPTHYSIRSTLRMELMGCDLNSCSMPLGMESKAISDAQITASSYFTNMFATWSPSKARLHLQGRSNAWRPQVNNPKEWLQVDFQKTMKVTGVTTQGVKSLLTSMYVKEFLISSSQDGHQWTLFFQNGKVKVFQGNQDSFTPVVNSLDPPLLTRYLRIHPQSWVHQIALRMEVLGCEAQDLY

[5] = target: T2, human von Willebrand factor (human, UniProt P04275 764-2813); experiment: SPR (BIAcore); FVIII protein as analyte, hvWf as ligand; N=5
T2 construct: also called hvWf; vWF
Protocol: (§1) Kinetic rate parameters of Kₐ (on-rate) and Kd (off-rate), and the affinity KD (Kd/Kₐ), were determined for each FVIII interaction under identical conditions.

[6] = target: T2, human von Willebrand factor; experiment: SPR (BIAcore); FVIII protein as analyte, hvWf as ligand; N=5; KD = off-rate/on-rate
Protocol: as §1

single-chain canine FcRn (canine), sequence (chain, as listed by the source, form in doubt): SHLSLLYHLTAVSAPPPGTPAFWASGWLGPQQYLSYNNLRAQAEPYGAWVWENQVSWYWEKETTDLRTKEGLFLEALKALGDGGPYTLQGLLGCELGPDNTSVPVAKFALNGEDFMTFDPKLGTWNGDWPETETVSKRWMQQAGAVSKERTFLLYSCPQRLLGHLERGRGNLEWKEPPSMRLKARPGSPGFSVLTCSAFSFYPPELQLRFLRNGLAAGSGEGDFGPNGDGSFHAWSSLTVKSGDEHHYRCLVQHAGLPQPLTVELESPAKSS

- EC50 [1]: 196 nM
- EC50 [2]: 558 nM
- EC50 [3]: < 22.4 nM
Molecule: Human IgG1 (antibody)

Molecule: activated Factor IX
- Km (nM) (called Kd in the text): FXa generation rate against FIXa concentration, thrombin-activated FVIII protein on 25% PS-75% PC vesicles [4]: 2.5 nM
- Vmax (nM/min): FXa generation rate against FIXa concentration [4]: 4 nM/min

Molecule: activated protein C
- normalized FXa generation rate following cleavage by APC (thrombin 30' = 100); shown without a number [4]: 'BDD FVIII' is one of the two lighter bars of each group (alike in the scan); both lighter bars: about 8-16 without thrombin, 100 after thrombin 30', not lowered after a further 15' with APC (about 108-111), fallen to about 18-27 after 90' with APC

- koff [5]: 0.00114 s⁻¹
- kon [5]: 1.37e+06 M⁻¹ s⁻¹
- Kd [6]: 0.846 nM
B1: rBDD FVIII (recombinant B-domain deleted FVIII) (other)
chain: ATRRYYLGAVELSWDYMQSDLGELPVDARFPPRVPKSFPFNTSVVYKKTLFVEFTDHLFNIAKPRPPWMGLLGPTIQAEVYDTVVITLKNMASHPVSLHAVGVSYWKASEGAEYDDQTSQREKEDDKVFPGGSHTYVWQVLKENGPMASDPLCLTYSYLSHVDLVKDLNSGLIGALLVCREGSLAKEKTQTLHKFILLFAVFDEGKSWHSETKNSLMQDRDAASARAWPKMHTVNGYVNRSLPGLIGCHRKSVYWHVIGMGTTPEVHSIFLEGHTFLVRNHRQASLEISPITFLTAQTLLMDLGQFLLFCHISSHQHDGMEAYVKVDSCPEEPQLRMKNNEEAEDYDDDLTDSEMDVVRFDDDNSPSFIQIRSVAKKHPKTWVHYIAAEEEDWDYAPLVLAPDDRSYKSQYLNNGPQRIGRKYKKVRFMAYTDETFKTREAIQHESGILGPLLYGEVGDTLLIIFKNQASRPYNIYPHGITDVRPLYSRRLPKGVKHLKDFPILPGEIFKYKWTVTVEDGPTKSDPRCLTRYYSSFVNMERDLASGLIGPLLICYKESVDQRGNQIMSDKRNVILFSVFDENRSWYLTENIQRFLPNPAGVQLEDPEFQASNIMHSINGYVFDSLQLSVCLHEVAYWYILSIGAQTDFLSVFFSGYTFKHKMVYEDTLTLFPFSGETVFMSMENPGLWILGCHNSDFRNRGMTALLKVSSCDKNTGDYYEDSYEDISAYLLSKNNAIEPRSFSQNPPVLKRHQREITRTTLQSDQEEIDYDDTISVEMKKEDFDIYDEDENQSPRSFQKKTRHYFIAAVERLWDYGMSSSPHVLRNRAQSGSVPQFKKVVFQEFTDGSFTQPLYRGELNEHLGLLGPYIRAEVEDNIMVTFRNQASRPYSFYSSLISYEEDQRQGAEPRKNFVKPNETKTYFWKVQHHMAPTKDEFDCKAWAYFSDVDLEKDVHSGLIGPLLVCHTNTLNPAHGRQVTVQEFALFFTIFDETKSWYFTENMERNCRAPCNIQMEDPTFKENYRFHAINGYIMDTLPGLVMAQDQRIRWYLLSMGSNENIHSIHFSGHVFTVRKKEEYKMALYNLYPGVFETVEMLPSKAGIWRVECLIGEHLHAGMSTLFLVYSNKCQTPLGMASGHIRDFQITASGQYGQWAPKLARLHYSGSINAWSTKEPFSWIKVDLLAPMIIHGIKTQGARQKFSSLYISQFIIMYSLDGKKWQTYRGNSTGTLMVFFGNVDSSGIKHNIFNPPIIARYIRLHPTHYSIRSTLRMELMGCDLNSCSMPLGMESKAISDAQITASSYFTNMFATWSPSKARLHLQGRSNAWRPQVNNPKEWLQVDFQKTMKVTGVTTQGVKSLLTSMYVKEFLISSSQDGHQWTLFFQNGKVKVFQGNQDSFTPVVNSLDPPLLTRYLRIHPQSWVHQIALRMEVLGCEAQDLY
notes: The commercial product is largely processed into heavy and light chains; also called XYNTHA
